Here are results for two molecules from US20030113320A1 (BURNHAM INSTITUTE, published 2003).

The target of experiment [1] is T1, CD13/aminopeptidase N (CD13/APN), isolated from octylglucoside cell extracts (Homo sapiens (Human), UniProt P15144 2-967).
T1 construct: The source cell lines are human; also called NGR receptor; immuno-isolated CD13
Put plainly: peptide affinity chromatography of cell extracts. Here is the method:
(§1) To further characterize the interaction of CD13/APN with the NGR peptide, affinity chromatography on the CNGRC peptide was performed. The column was prepared by coupling the CNGRC peptide to SEPHAROSE (Pharmacia; Piscataway N.J.). Elution was effected with soluble CNGRC peptide. Experiments were performed using HL-60 cell extracts because they are known to express CD13/APN without other proteases that could interfere in the APN assay (Xu et al., supra (1997)). Thus, in HL-60 cell extracts, all detectable cell surface enzymatic activity is inhibitable by anti-CD13 blocking antibodies, assuring specificity. Extracts of Molt-4 and MDA-MB-435 cells transfected with CD13/APN were also characterized by using affinity chromatography, with extracts of the mock transfected counterparts used as negative controls.
(§2) Briefly, CD13 was detected by testing aliquots of each fraction for the presence of CD13 immunoreactivity in ELISA with the anti-CD13 monoclonal antibody WM15, using normal mouse IgG as a negative control. The fractions were also analyzed for CD13 enzymatic activity using AlapNA as the substrate. […] Furthermore, no CD13 activity was recovered from the CNGRC column when the extract fractionated was derived from CD13-negative cells (see FIG. 6).

Experiment [2] concerns the target T2, CD13/aminopeptidase N on CD13-transfected cells (Molt-4/CD13, MDA-MB-435/CD13) (Homo sapiens (Human), UniProt P15144 2-967).
T2 construct: The parental lines express no endogenous CD13; The transfected construct is not described; also called CD13/APN
The experiment can be described thus: competition with CNGRC phage on CD13-transfected cells; peptide at 250 and 500 ug/ml. The method, then:
The CNGRC phage binds specifically to cells transfected with CD13. […] Briefly, mock transfected Molt-4 cells (“Molt-4/mock”) and cells transfected with CD13 (“Molt-4/CD13”) were incubated with CNGRC (SEQ ID NO:8) phage or with control Fd phage lacking an insert (2× 10^9 transducing units (TU) per sample). […] After extensive washing, bound phage were quantitated by infection of bacteria as described above.

Experiment [3] deals with T1, CD13/aminopeptidase N (CD13/APN), …. Put plainly: affinity chromatography of Molt-4/CD13, MDA-MB-435/CD13 or HL-60 cell extracts on CNGRC-SEPHAROSE
The method, then:
as §1, §2

Where no end group is shown, it is not given here.

T1 sequence (P15144 2-967 R86Q limits assumed): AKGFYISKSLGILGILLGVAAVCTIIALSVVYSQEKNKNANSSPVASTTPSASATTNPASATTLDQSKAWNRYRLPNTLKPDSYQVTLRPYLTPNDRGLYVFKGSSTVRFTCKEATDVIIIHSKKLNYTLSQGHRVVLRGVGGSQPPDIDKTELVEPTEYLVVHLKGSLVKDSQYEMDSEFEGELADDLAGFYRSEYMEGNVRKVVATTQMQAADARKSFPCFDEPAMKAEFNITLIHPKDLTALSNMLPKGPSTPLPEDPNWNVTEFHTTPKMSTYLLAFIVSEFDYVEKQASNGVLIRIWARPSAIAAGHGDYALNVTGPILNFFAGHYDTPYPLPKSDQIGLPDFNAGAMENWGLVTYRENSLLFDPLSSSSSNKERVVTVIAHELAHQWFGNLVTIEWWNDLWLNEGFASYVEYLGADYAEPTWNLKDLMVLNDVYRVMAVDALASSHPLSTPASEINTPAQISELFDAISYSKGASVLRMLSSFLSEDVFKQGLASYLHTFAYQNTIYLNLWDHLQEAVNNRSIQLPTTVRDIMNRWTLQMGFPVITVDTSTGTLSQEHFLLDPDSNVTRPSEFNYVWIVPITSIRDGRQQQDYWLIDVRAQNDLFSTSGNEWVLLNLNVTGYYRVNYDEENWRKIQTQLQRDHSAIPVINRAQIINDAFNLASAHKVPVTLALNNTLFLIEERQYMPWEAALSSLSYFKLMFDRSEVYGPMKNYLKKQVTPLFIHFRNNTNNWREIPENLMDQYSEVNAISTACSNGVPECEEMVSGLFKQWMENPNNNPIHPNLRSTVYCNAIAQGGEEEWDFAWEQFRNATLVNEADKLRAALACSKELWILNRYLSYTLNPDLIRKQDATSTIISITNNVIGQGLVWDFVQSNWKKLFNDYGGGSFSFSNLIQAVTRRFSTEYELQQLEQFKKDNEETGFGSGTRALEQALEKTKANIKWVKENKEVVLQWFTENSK
T2 sequence (P15144 2-967 R86Q limits assumed): as above

B1: CARAC peptide (SEQ ID NO:221) (peptide)
peptide: CARAC
notes: also called negative control CARAC; control peptide
Consider B1, for which the binding result in experiment [1] is on record as “no binding”.

B2: CNGRC cyclic peptide (SEQ ID NO:8) (peptide)
peptide: CNGRC
modifications: also: cyclized (cyclic peptide), ring type not given here
notes: also called NGR cyclic peptide; soluble CNGRC peptide
Take B2: the binding result in experiment [2] and in experiment [3] was “binds” throughout.
